According to IntAct's records for PubMed 16720724:

B1: Activin receptor type-1B (Homo sapiens), P36896 (parent)
chain: MAESAGASSFFPLVVLLLAGSGGSGPRGVQALLCACTSCLQANYTCETDGACMVSIFNLDGMEHHVRTCIPKVELVPAGKPFYCLSSEDLRNTHCCYTDYCNRIDLRVPSGHLKEPEHPSMWGPVELVGIIAGPVFLLFLIIIIVFLVINYHQRVYHNRQRLDMEDPSCEMCLSKDKTLQDLVYDLSTSGSGSGLPLFVQRTVARTIVLQEIIGKGRFGEVWRGRWRGGDVAVKIFSSREERSWFREAEIYQTVMLRHENILGFIAADNKDNGTWTQLWLVSDYHEHGSLFDYLNRYTVTIEGMIKLALSAASGLAHLHMEIVGTQGKPGIAHRDLKSKNILVKKNGMCAIADLGLAVRHDAVTDTIDIAPNQRVGTKRYMAPEVLDETINMKHFDSFKCADIYALGLVYWEIARRCNSGGVHEEYQLPYYDLVPSDPSIEEMRKVVCDQKLRPNIPNWWQSYEALRVMGKMMRECWYANGAARLTALRIKKTLSQLSVQEDVKI

Variants of: B1
Details: with smad7_human SMAD7, O15105
Sequence of smad7_human SMAD7, O15105 (O15105 whole entry): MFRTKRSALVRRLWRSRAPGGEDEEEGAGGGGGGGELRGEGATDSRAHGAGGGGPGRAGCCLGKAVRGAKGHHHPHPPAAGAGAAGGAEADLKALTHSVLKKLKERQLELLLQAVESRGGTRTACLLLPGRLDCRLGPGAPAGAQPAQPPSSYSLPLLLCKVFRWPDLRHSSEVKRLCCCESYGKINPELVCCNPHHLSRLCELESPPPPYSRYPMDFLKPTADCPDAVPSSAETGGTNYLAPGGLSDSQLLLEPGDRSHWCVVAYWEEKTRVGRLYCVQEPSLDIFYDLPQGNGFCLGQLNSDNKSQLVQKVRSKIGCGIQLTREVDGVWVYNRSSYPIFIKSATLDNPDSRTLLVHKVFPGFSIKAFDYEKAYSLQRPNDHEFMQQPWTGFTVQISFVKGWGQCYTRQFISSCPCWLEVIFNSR

| effect of a mutation on the interaction | Variant |
| --- | --- |
| increasing interaction | MAESAGASSFFPLVVLLLAGSGGSGPRGVQALLCACTSCLQANYTCETDGACMVSIFNLDGMEHHVRTCIPKVELVPAGKPFYCLSSEDLRNTHCCYTDYCNRIDLRVPSGHLKEPEHPSMWGPVELVGIIAGPVFLLFLIIIIVFLVINYHQRVYHNRQRLDMEDPSCEMCLSKDKTLQDLVYDLSTSGSGSGLPLFVQRTVAREIVLQEIIGKGRFGEVWRGRWRGGDVAVKIFSSREERSWFREAEIYQTVMLRHENILGFIAADNKDNGTWTQLWLVSDYHEHGSLFDYLNRYTVTIEGMIKLALSAASGLAHLHMEIVGTQGKPGIAHRDLKSKNILVKKNGMCAIADLGLAVRHDAVTDTIDIAPNQRVGTKRYMAPEVLDETINMKHFDSFKCADIYALGLVYWEIARRCNSGGVHEEYQLPYYDLVPSDPSIEEMRKVVCDQKLRPNIPNWWQSYEALRVMGKMMRECWYANGAARLTALRIKKTLSQLSVQEDVKI [T206E] |
